PMC3080401, “Oligomerization of the E. coli Core RNA Polymerase: Formation of (α2ββ'ω)2–DNA Complexes and Regulation of the Oligomerization by Auxiliary Subunits”

Key:
[1] = target: RNA polymerase core enzyme (alpha2 beta beta' omega) (Escherichia coli, UniProt P0A7Z4;P0A8V2;P0A8T7;P0A800 1-329;1-1342;1-1407;1-91); experiment: EMSA; 40-160 nM core; tandem (D) complex; EMSA buffer D (1x): 20 mM Tris-acetate, 10 mM Mg acetate, 50 mM K acetate, 1 mM DTT, pH 7.8; native PAGE in 0.5x TBE running buffer; 37 C for the tac and slyD template reactions, otherwise temperature not stated; conditions: protein: native; chain copies: 2;1;1;1; label: 5'-32P
[2] = target: RNA polymerase holoenzyme (alpha2 beta beta' omega sigma70) (Escherichia coli, UniProt P0A7Z4;P0A8V2;P0A8T7;P0A800;P00579 1-329;1-1342;1-1407;1-91;1-613); experiment: EMSA; 40-160 nM holoenzyme; single-copy (M) complex; EMSA buffer D (1x): 20 mM Tris-acetate, 10 mM Mg acetate, 50 mM K acetate, 1 mM DTT, pH 7.8; native PAGE in 0.5x TBE running buffer; 37 C for the tac and slyD template reactions, otherwise temperature not stated; conditions: protein: native; chain copies: 2;1;1;1;1; label: 5'-32P

## CGCGCCAACAGCGACATCAAATTTGTCGCC (mixed) [short DNA probe (Fig 2E)]
[1]
  binding result: binds
[2]
  binding result: binds
